In paper PMC9482650, “Quantitative fragmentomics allow affinity mapping of interactomes” (Nature Communications, 2022):

biological target: FRMPD4, Q14CM0; assay: holdup assay; parameters: key: below the threshold = too weak to quantify, mostly under pKd 3.1 to 4; conditions: plain residues with an end cap or a label only (N-terminal biotin on a linker: ado-ado)
Sequence (Q14CM0 67-160): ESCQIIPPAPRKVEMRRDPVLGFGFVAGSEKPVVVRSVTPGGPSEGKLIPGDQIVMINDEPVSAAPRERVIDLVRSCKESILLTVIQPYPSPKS

Row | Binder | pKd
1 | SARSRLSSNL [HCN2, Q9UL51] | 3.5
2 | GSGAVEMESV [AQP6, Q13520] | below the threshold

biological target: FRMPD3, Q5JV73; assay: holdup assay; parameters: key: below the threshold = too weak to quantify, mostly under pKd 3.1 to 4; conditions: plain residues with an end cap or a label only (N-terminal biotin on a linker: ado-ado)
Sequence (Q5JV73 12-100): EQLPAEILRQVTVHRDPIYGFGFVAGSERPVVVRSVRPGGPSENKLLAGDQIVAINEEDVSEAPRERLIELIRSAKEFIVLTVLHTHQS

Row | Binder | pKd
3 | SARSRLSSNL [HCN2, Q9UL51] | below the threshold
4 | GSGAVEMESV [AQP6, Q13520] | below the threshold

biological target: T1, PDZRN3_1, Q9UPQ7; assay: holdup assay; parameters: key: below the threshold = too weak to quantify, mostly under pKd 3.1 to 4; conditions: plain residues with an end cap or a label only (N-terminal biotin on a linker: ado-ado)
T1 sequence (Q9UPQ7 244-349, limits assumed, looked up): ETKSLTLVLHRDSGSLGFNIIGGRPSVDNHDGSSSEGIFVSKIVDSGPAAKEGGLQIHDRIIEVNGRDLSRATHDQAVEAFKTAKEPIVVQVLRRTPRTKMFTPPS

Row | Binder | pKd
5 | SARSRLSSNL [HCN2, Q9UL51] | 3.63
6 | GSGAVEMESV [AQP6, Q13520] | below the threshold

biological target: DLG4_3, P78352; assay: holdup assay; parameters: key: below the threshold = too weak to quantify, mostly under pKd 3.1 to 4; conditions: plain residues with an end cap or a label only (N-terminal biotin on a linker: ado-ado)
Sequence (P78352 306-403): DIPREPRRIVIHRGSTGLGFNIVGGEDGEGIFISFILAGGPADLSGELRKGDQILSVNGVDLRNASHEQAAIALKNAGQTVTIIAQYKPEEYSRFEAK

Row | Binder | pKd
7 | SARSRLSSNL [HCN2, Q9UL51] | below the threshold
8 | GSGAVEMESV [AQP6, Q13520] | below the threshold

biological target: PICK1, Q9NRD5; assay: holdup assay; parameters: key: below the threshold = too weak to quantify, mostly under pKd 3.1 to 4; conditions: plain residues with an end cap or a label only (N-terminal biotin on a linker: ado-ado)
Sequence (Q9NRD5 17-115): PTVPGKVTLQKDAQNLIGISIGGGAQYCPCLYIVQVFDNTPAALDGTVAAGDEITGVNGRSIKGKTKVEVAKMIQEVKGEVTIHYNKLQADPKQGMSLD

Row | Binder | pKd
9 | SARSRLSSNL [HCN2, Q9UL51] | below the threshold
10 | GSGAVEMESV [AQP6, Q13520] | below the threshold

biological target: LNX1_3, Q8TBB1; assay: holdup assay; parameters: key: below the threshold = too weak to quantify, mostly under pKd 3.1 to 4; conditions: plain residues with an end cap or a label only (N-terminal biotin on a linker: ado-ado)
Sequence (Q8TBB1 500-596): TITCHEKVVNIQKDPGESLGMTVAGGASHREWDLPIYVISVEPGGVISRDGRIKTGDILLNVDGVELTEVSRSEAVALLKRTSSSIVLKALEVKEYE

Row | Binder | pKd
11 | SARSRLSSNL [HCN2, Q9UL51] | below the threshold
12 | GSGAVEMESV [AQP6, Q13520] | below the threshold

biological target: MAGI2_5, Q86UL8; assay: holdup assay; parameters: key: below the threshold = too weak to quantify, mostly under pKd 3.1 to 4; conditions: plain residues with an end cap or a label only (N-terminal biotin on a linker: ado-ado)
Sequence (Q86UL8 915-1017): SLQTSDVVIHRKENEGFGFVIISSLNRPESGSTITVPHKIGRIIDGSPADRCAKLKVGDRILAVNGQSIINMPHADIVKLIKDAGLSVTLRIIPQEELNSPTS

Row | Binder | pKd
13 | SARSRLSSNL [HCN2, Q9UL51] | below the threshold
14 | GSGAVEMESV [AQP6, Q13520] | below the threshold

biological target: GORASP1, Q9BQQ3; assay: holdup assay; parameters: key: below the threshold = too weak to quantify, mostly under pKd 3.1 to 4; conditions: plain residues with an end cap or a label only (N-terminal biotin on a linker: ado-ado)
Sequence (Q9BQQ3 1-208): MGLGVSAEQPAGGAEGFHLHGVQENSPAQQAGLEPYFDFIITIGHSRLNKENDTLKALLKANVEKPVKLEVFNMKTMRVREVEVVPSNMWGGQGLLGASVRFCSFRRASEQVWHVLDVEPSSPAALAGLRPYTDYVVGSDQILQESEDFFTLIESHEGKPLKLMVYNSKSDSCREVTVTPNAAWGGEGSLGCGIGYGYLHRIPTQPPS

Row | Binder | pKd
15 | SARSRLSSNL [HCN2, Q9UL51] | below the threshold
16 | GSGAVEMESV [AQP6, Q13520] | below the threshold

biological target: T2, GRIP1_3, Q9Y3R0; assay: holdup assay; parameters: key: below the threshold = too weak to quantify, mostly under pKd 3.1 to 4; conditions: plain residues with an end cap or a label only (N-terminal biotin on a linker: ado-ado)
T2 sequence (Q9Y3R0 247-346, limits assumed, looked up): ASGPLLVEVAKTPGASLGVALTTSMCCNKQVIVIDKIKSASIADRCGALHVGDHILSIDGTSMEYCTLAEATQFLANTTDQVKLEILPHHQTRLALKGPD

Row | Binder | pKd
17 | SARSRLSSNL [HCN2, Q9UL51] | below the threshold
18 | GSGAVEMESV [AQP6, Q13520] | below the threshold

biological target: GRIP2_4, Q9C0E4; assay: holdup assay; parameters: key: below the threshold = too weak to quantify, mostly under pKd 3.1 to 4; conditions: plain residues with an end cap or a label only (N-terminal biotin on a linker: ado-ado)
Sequence (Q9C0E4 446-548): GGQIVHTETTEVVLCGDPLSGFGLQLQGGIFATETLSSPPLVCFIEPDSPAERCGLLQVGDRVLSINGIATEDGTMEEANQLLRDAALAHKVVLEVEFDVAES

Row | Binder | pKd
19 | SARSRLSSNL [HCN2, Q9UL51] | below the threshold
20 | GSGAVEMESV [AQP6, Q13520] | below the threshold

biological target: MAGI2_6, Q86UL8; assay: holdup assay; parameters: key: below the threshold = too weak to quantify, mostly under pKd 3.1 to 4; conditions: plain residues with an end cap or a label only (N-terminal biotin on a linker: ado-ado)
Sequence (Q86UL8 1141-1229): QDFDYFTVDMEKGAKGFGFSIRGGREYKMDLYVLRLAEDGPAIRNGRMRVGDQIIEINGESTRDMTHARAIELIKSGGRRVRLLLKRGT

Row | Binder | pKd
21 | SARSRLSSNL [HCN2, Q9UL51] | below the threshold
22 | GSGAVEMESV [AQP6, Q13520] | 3.51

biological target: LNX1_1, Q8TBB1; assay: holdup assay; parameters: key: below the threshold = too weak to quantify, mostly under pKd 3.1 to 4; conditions: plain residues with an end cap or a label only (N-terminal biotin on a linker: ado-ado)
Sequence (Q8TBB1 261-371): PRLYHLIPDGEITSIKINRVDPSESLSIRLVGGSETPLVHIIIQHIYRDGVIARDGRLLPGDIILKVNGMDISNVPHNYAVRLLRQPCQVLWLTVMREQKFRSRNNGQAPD

Row | Binder | pKd
23 | SARSRLSSNL [HCN2, Q9UL51] | below the threshold
24 | GSGAVEMESV [AQP6, Q13520] | below the threshold

biological target: SCRIB_2, Q14160; assay: holdup assay; parameters: key: below the threshold = too weak to quantify, mostly under pKd 3.1 to 4; conditions: plain residues with an end cap or a label only (N-terminal biotin on a linker: ado-ado)
Sequence (Q14160 857-960): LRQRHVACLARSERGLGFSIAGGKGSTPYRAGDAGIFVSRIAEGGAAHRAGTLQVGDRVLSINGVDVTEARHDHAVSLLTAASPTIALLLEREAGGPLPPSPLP

Row | Binder | pKd
25 | SARSRLSSNL [HCN2, Q9UL51] | below the threshold
26 | GSGAVEMESV [AQP6, Q13520] | below the threshold

biological target: T3, APBA2_2, Q99767; assay: holdup assay; parameters: key: below the threshold = too weak to quantify, mostly under pKd 3.1 to 4; conditions: plain residues with an end cap or a label only (N-terminal biotin on a linker: ado-ado)
T3 sequence (Q99767 654-744, limits assumed, looked up): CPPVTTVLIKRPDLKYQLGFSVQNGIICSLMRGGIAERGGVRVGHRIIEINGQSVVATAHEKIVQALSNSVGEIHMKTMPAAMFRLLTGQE

Row | Binder | pKd
27 | SARSRLSSNL [HCN2, Q9UL51] | below the threshold
28 | GSGAVEMESV [AQP6, Q13520] | below the threshold

biological target: Inadl_1, Q8NI35; assay: holdup assay; parameters: key: below the threshold = too weak to quantify, mostly under pKd 3.1 to 4; conditions: plain residues with an end cap or a label only (N-terminal biotin on a linker: ado-ado)
Sequence (Q8NI35 113-229): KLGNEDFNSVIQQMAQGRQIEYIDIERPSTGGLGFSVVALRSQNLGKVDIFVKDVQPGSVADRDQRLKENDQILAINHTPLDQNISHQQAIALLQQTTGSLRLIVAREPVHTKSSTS

Row | Binder | pKd
29 | SARSRLSSNL [HCN2, Q9UL51] | below the threshold
30 | GSGAVEMESV [AQP6, Q13520] | below the threshold

biological target: T4, TX1BP3, O14907; assay: holdup assay; parameters: key: below the threshold = too weak to quantify, mostly under pKd 3.1 to 4; conditions: plain residues with an end cap or a label only (N-terminal biotin on a linker: ado-ado)
T4 sequence (O14907 10-122, limits assumed, looked up): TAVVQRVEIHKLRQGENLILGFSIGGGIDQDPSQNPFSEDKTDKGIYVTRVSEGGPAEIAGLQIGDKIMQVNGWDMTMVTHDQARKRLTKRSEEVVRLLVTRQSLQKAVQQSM

Row | Binder | pKd
31 | SARSRLSSNL [HCN2, Q9UL51] | 4.23
32 | GSGAVEMESV [AQP6, Q13520] | below the threshold

biological target: SCRIB_3, Q14160; assay: holdup assay; parameters: key: below the threshold = too weak to quantify, mostly under pKd 3.1 to 4; conditions: plain residues with an end cap or a label only (N-terminal biotin on a linker: ado-ado)
Sequence (Q14160 999-1103): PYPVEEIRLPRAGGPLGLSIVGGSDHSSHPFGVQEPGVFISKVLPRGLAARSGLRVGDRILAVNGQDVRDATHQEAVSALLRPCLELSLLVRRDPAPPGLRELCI

Row | Binder | pKd
33 | SARSRLSSNL [HCN2, Q9UL51] | 4.32
34 | GSGAVEMESV [AQP6, Q13520] | below the threshold

biological target: T5, RADIL, Q96JH8; assay: holdup assay; parameters: key: below the threshold = too weak to quantify, mostly under pKd 3.1 to 4; conditions: plain residues with an end cap or a label only (N-terminal biotin on a linker: ado-ado)
T5 sequence (Q96JH8 971-1071, limits assumed, looked up): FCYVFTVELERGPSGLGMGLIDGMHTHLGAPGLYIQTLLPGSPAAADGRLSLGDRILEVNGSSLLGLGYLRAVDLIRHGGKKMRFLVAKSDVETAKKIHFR

Row | Binder | pKd
35 | SARSRLSSNL [HCN2, Q9UL51] | below the threshold
36 | GSGAVEMESV [AQP6, Q13520] | 3.56

biological target: T6, GRIP1_5, Q9Y3R0; assay: holdup assay; parameters: key: below the threshold = too weak to quantify, mostly under pKd 3.1 to 4; conditions: plain residues with an end cap or a label only (N-terminal biotin on a linker: ado-ado)
T6 sequence (Q9Y3R0 568-668, limits assumed, looked up): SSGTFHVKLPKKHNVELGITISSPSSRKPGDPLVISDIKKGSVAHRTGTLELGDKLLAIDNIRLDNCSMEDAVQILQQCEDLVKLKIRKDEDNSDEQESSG

Row | Binder | pKd
37 | SARSRLSSNL [HCN2, Q9UL51] | below the threshold
38 | GSGAVEMESV [AQP6, Q13520] | below the threshold

biological target: DLG4_2, P78352; assay: holdup assay; parameters: key: below the threshold = too weak to quantify, mostly under pKd 3.1 to 4; conditions: plain residues with an end cap or a label only (N-terminal biotin on a linker: ado-ado)
Sequence (P78352 155-259): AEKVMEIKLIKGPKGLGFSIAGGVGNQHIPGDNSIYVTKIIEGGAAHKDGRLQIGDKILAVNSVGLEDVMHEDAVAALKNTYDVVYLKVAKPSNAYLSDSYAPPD

Row | Binder | pKd
39 | SARSRLSSNL [HCN2, Q9UL51] | below the threshold
40 | GSGAVEMESV [AQP6, Q13520] | below the threshold

biological target: SNX27, Q96L92; assay: holdup assay; parameters: key: below the threshold = too weak to quantify, mostly under pKd 3.1 to 4; conditions: plain residues with an end cap or a label only (N-terminal biotin on a linker: ado-ado)

Row | Binder | pKd
41 | SARSRLSSNL [HCN2, Q9UL51] | 4.3
42 | GSGAVEMESV [AQP6, Q13520] | 3.7

biological target: MAGI1_2, Q96QZ7; assay: holdup assay; parameters: key: below the threshold = too weak to quantify, mostly under pKd 3.1 to 4; conditions: plain residues with an end cap or a label only (N-terminal biotin on a linker: ado-ado)
Sequence (Q96QZ7 456-580): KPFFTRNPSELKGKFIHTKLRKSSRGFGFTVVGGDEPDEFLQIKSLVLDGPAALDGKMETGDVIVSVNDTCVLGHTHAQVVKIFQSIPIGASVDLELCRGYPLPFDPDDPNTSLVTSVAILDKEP

Row | Binder | pKd
43 | SARSRLSSNL [HCN2, Q9UL51] | 4.17
44 | GSGAVEMESV [AQP6, Q13520] | below the threshold

biological target: PDZRN4_1, Q6ZMN7; assay: holdup assay; parameters: key: below the threshold = too weak to quantify, mostly under pKd 3.1 to 4; conditions: plain residues with an end cap or a label only (N-terminal biotin on a linker: ado-ado)
Sequence (Q6ZMN7 213-318): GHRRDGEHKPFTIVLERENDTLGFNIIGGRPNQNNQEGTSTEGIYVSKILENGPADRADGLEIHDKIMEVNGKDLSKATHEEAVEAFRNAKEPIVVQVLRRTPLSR

Row | Binder | pKd
45 | SARSRLSSNL [HCN2, Q9UL51] | 3.53
46 | GSGAVEMESV [AQP6, Q13520] | below the threshold

biological target: Inadl_6, Q8NI35; assay: holdup assay; parameters: key: below the threshold = too weak to quantify, mostly under pKd 3.1 to 4; conditions: plain residues with an end cap or a label only (N-terminal biotin on a linker: ado-ado)
Sequence (Q8NI35 1058-1167): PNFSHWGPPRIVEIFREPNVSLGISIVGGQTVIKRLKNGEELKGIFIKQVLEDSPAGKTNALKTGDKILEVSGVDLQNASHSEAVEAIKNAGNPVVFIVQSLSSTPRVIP

Row | Binder | pKd
47 | SARSRLSSNL [HCN2, Q9UL51] | below the threshold
48 | GSGAVEMESV [AQP6, Q13520] | below the threshold

biological target: MAGI1_1, Q96QZ7; assay: holdup assay; parameters: key: below the threshold = too weak to quantify, mostly under pKd 3.1 to 4; conditions: plain residues with an end cap or a label only (N-terminal biotin on a linker: ado-ado)
Sequence (Q96QZ7 1-106): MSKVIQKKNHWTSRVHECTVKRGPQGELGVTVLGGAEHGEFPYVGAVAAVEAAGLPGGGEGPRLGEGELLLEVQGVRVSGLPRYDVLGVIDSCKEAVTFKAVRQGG

Row | Binder | pKd
49 | SARSRLSSNL [HCN2, Q9UL51] | below the threshold
50 | GSGAVEMESV [AQP6, Q13520] | below the threshold

biological target: LNX1_2, Q8TBB1; assay: holdup assay; parameters: key: below the threshold = too weak to quantify, mostly under pKd 3.1 to 4; conditions: plain residues with an end cap or a label only (N-terminal biotin on a linker: ado-ado)
Sequence (Q8TBB1 371-470): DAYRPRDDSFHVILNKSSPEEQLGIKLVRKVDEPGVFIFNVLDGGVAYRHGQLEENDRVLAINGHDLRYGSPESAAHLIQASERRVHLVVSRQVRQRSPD

Row | Binder | pKd
51 | SARSRLSSNL [HCN2, Q9UL51] | below the threshold
52 | GSGAVEMESV [AQP6, Q13520] | below the threshold

biological target: IL16_4, Q14005; assay: holdup assay; parameters: key: below the threshold = too weak to quantify, mostly under pKd 3.1 to 4; conditions: plain residues with an end cap or a label only (N-terminal biotin on a linker: ado-ado)
Sequence (Q14005 1229-1329): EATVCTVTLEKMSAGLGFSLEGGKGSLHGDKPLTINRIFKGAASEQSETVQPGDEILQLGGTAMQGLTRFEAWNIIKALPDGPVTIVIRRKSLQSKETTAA

Row | Binder | pKd
53 | SARSRLSSNL [HCN2, Q9UL51] | below the threshold
54 | GSGAVEMESV [AQP6, Q13520] | below the threshold

biological target: GRIP2_7, Q9C0E4; assay: holdup assay; parameters: key: below the threshold = too weak to quantify, mostly under pKd 3.1 to 4; conditions: plain residues with an end cap or a label only (N-terminal biotin on a linker: ado-ado)
Sequence (Q9C0E4 934-1023): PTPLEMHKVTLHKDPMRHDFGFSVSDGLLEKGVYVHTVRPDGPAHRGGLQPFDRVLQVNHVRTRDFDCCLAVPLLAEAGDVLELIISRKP

Row | Binder | pKd
55 | SARSRLSSNL [HCN2, Q9UL51] | below the threshold
56 | GSGAVEMESV [AQP6, Q13520] | below the threshold

biological target: T7, SNTB1, Q13884; assay: holdup assay; parameters: key: below the threshold = too weak to quantify, mostly under pKd 3.1 to 4; conditions: plain residues with an end cap or a label only (N-terminal biotin on a linker: ado-ado)
T7 sequence (Q13884 107-205, limits assumed, looked up): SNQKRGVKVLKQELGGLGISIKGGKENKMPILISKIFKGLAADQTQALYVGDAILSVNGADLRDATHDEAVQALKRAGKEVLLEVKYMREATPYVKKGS

Row | Binder | pKd
57 | SARSRLSSNL [HCN2, Q9UL51] | below the threshold
58 | GSGAVEMESV [AQP6, Q13520] | below the threshold

biological target: CASK, O14936; assay: holdup assay; parameters: key: below the threshold = too weak to quantify, mostly under pKd 3.1 to 4; conditions: plain residues with an end cap or a label only (N-terminal biotin on a linker: ado-ado)
Sequence (O14936 487-570): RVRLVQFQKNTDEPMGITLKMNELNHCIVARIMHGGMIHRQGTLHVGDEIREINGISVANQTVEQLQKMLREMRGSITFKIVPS

Row | Binder | pKd
59 | SARSRLSSNL [HCN2, Q9UL51] | below the threshold
60 | GSGAVEMESV [AQP6, Q13520] | below the threshold
